Consider 1 substance from publication doi:10.1101/2025.01.21.634112.

The target in assay [1] is human von Willebrand Factor (VWF) (human) (UniProt P04275).
Assay [2] has as its target Monodelphis domestica von Willebrand Factor (VWF) (Monodelphis domestica).

With “botrocetin from Bothrops jararaca (complex)”, in assay [1], the reduction in the overall extent of platelet adhesion to collagen under flow (60 dyn/cm^2, 10 min) in human PRP with 4 ug/mL botrocetin, compared to the negative control came out at 66%. Further, the reduction in the overall extent of platelet adhesion to collagen under flow (60 dyn/cm^2, 10 min) in opossum PRP with 4 ug/mL botrocetin, compared to the negative control in assay [2] was 39%.
